The record followed here is patent US10058586B2, “Use of human small leucine zipper protein in adipocyte differentiation procedure” (Korea University Research and Business Foundation, priority 2013, dated 2018).

The target in this assay is T1, PPARγ2 (Homo sapiens, UniProt P37231).
T1 sequence (P37231 1-505): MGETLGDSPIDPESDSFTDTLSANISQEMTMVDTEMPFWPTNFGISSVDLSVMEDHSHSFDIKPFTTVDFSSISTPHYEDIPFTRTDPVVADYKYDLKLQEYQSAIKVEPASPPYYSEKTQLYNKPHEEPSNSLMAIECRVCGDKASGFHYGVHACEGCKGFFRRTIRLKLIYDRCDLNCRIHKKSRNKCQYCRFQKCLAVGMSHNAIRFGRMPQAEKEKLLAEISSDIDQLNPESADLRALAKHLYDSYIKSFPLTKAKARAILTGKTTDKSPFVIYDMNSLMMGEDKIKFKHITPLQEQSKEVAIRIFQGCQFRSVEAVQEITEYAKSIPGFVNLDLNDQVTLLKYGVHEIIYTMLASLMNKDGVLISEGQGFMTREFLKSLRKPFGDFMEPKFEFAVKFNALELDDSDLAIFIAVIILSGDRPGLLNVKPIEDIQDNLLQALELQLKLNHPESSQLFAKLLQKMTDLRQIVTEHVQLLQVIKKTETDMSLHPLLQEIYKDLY
The experiment in a line: Luciferase reporter gene analysis (FABP4-Luc) of PPARγ2 transcriptional activity in 293T cells. In kind it is cell-based. More on the design: expressed in transfected cells; host or cells: 293T cells. The conditions noted are these: 293T cells; for transcriptional activity of PPARγ2 (luciferase): sLZIP 0.1 μg; for PPARγ2 transcriptional activity (luciferase): sLZIP or deletion mutants 0.1 μg, RZD treated. Here is the method:
C3H10T1/2 and 293T cells were plated in a 12-well culture dish at a density of 2×10^5 cells/well and incubated for 24 hours. Then, according to instructions of the manufacturer, the cells were transfected with a 0.2 μg of reporter genes and 0.1 to 0.5 μg of a laboratory plasmid using Lipofectamine 2000 or Genefectine. After 24 hours, the cells were cultured in a serum-free DMEM with or without 10 nM of rosiglitazone. siRNAs were prepared using sLZIP and HDAC target sequences (Table 1). For an RNA interference experiment, according to instructions of the manufacturer, the cells were transfected with scrambled control group RNA and appropriate siRNAs using Lipofectamine 2000. Human MSC and C3H10T/1/2 cells were infected with an adenovirus vector containing cDNA of human sLZIP or an empty vector. The infected medium was exchanged with a fresh medium after two hours.
Appropriately transfected cells were washed with cold PBS twice, and a reporter lysis buffer (Promega) was used and lysed in a culture dish. Luciferase analysis was performed using a luciferase analysis system (Promega Corporation, Madison, Wis.). A luciferase activity was recorded in Luminometer 20/20^n (Turner BioSystems, Sunnyvale, Calif.) according to instructions of the manufacturer. The luciferase activity was normalized to a β-galactosidase activity. For β-galactosidase analysis, CMV-β-galactosidase was transfected with luciferase reporter genes. All pieces of data were represented as mean±standard deviation of the results from at least three independent experiments.
In order to examine an effect of sLZIP on the transcriptional activity of PPARγ2, 293T cells were temporarily transfected with PPARγ2 (0.5 μg), β-galactosidase (0.1 μg), FABP4-Luc reporter genes (0.2 μg) and sLZIP at different contents (0.1 to 0.5 μg). After the transfection, the cells were stimulated with or without 10 nM of rosiglitazone (RZD) (FIG. 1A), pioglitazone (PZD) (FIG. 1B), and troglitazone (TZD) (FIG. 1C). A relative luciferase activity was analyzed with or without cell ligand treatment 24 hours after transfection. Also, the 293T cells were transiently transfected with si-sLZIP at different contents (50 and 100 nM), and the cells were treated or not treated with RZD (FIG. 1D). FABP4-Luc stable C3H10T1/2 cells were infected with a sLZIP-expressing adenovirus, and then differentiated into adipocytes for 4 days (FIG. 1E). A luciferase activity was normalized to a β-galactosidase activity and represented as a relative activity (fold change). All experiments were repeated three times, and bars in the graph represent mean±standard deviation. *, P<0.05; **, P<0.01
For this purpose, 293T cells were transiently transfected with PPARγ2 (0.5 μg), (3-galactosidase (0.1 μg), FABP4-Luc reporter genes (0.2 μg) and sLZIP (0.1 μg). After the transfection, the cells were stimulated with or without 10 nM of RZD and 10 nM of TSA (FIG. 4A). A promoter activity was measured according to luciferase analysis. In the 293T cells, FABP4-Luc reporter genes, sLZIP, PPAR, β-galactosidase, and 100 nM of si-RNAs and HDAC1, 2, 3 and 8 for a control group were expressed. After the transfection, the cells were stimulated with or without 10 nM of RZD, and a promoter activity was measured (FIG. 4B). 293T cells were temporarily transfected with FABP4-Luc reporter genes, PPARγ2, β-galactosidase, HDAC3 (0.5 μg) and sLZIP (0.1 μg). After the transfection, the cells were stimulated with or without 10 nM of RZD, and luciferase analysis was performed (FIG. 4C). A luciferase activity was normalized to a β-galactosidase activity and represented as a relative intensity (fold change). All experiments were repeated three times, and bars in the graph represent mean±standard deviation. GFP-sLZIP expression constructs were expressed in C3H10T1/2 cells, rabbit anti-HDAC3 antibodies and Texas Red-labeled anti-rabbit antibodies were used and analysis was performed under a fluorescence microscope. The nucleus was stained with DAPI (FIG. 4D). […]
For orientation: A reporter such as luciferase makes a cellular process visible.

B1: sLZIP: human small leucine-zipper protein, isoform of LZIP, 354 amino acids, no transmembrane domain; GenBank FJ263669, SEQ ID NO: 1 (protein, listed as Homo sapiens)
chain: MELELDAGDQDLLAFLLEESGDLGTAPDEAVRAPLDWALPLSEVPSDWEVDDLLCSLLSPPASLNILSSSNPCLVHHDHTYSLPRETVSMDLESESCRKEGTQMTPQHMEELAEQEIARLVLTDEEKSLLEKEGLILPETLPLTKTEEQILKRVRRKIRNKRSAQESRRKKKVYVGGLESRVLKYTAQNMELQNKVQLLEEQNLSLLDQLRKLQAMVIEISNKTSSSSMYSSDTRGSLPAEHGVLSRQLRALPSEDPYQLELPALQSEVPKDSTHQWLDGSDCVLQAPGNTSCLLHYMPQAPSAEPPLEWPFPDLFSEPLCRGPILPLQANLTRKGGWLPTGSPSVILQDRYSG
With B1, the “PPARγ2 transcriptional activity (luciferase)” value is “still inhibited the PPARγ2 transcriptional activity”. Moreover, the “transcriptional activity of PPARγ2 (luciferase)” value (cells treated with 10 nM TSA (HDAC inhibitor)) is given as “did not decrease the transcriptional activity of PPARγ2”. For the same molecule, the “transcriptional activity of PPARγ2 (luciferase)” value (no TSA) is on record as “inhibits the transcriptional activity of PPARγ2”. Further, the “transcriptional activity of PPARγ2 (relative luciferase activity)” value (sLZIP 0.1 to 0.5 μg, with or without 10 nM RZD, PZD or TZD) is reported as “inhibits the transcriptional activity of PPARγ2 in a concentration-dependent manner”. For the setting “transfection of both sLZIP (0.1 μg) and HDAC3 (0.5 μg)”, the “sLZIP-mediated PPARγ2 transcriptional activity (luciferase)” value is listed as “significantly down-regulated”.

B2: N domains of sLZIP: N-terminal deletion mutant of sLZIP, residues 1-228 (protein)
chain: MELELDAGDQDLLAFLLEESGDLGTAPDEAVRAPLDWALPLSEVPSDWEVDDLLCSLLSPPASLNILSSSNPCLVHHDHTYSLPRETVSMDLESESCRKEGTQMTPQHMEELAEQEIARLVLTDEEKSLLEKEGLILPETLPLTKTEEQILKRVRRKIRNKRSAQESRRKKKVYVGGLESRVLKYTAQNMELQNKVQLLEEQNLSLLDQLRKLQAMVIEISNKTSSSS
modifications: left off: a dimerising Fc or GST
As for B2, the “PPARγ2 transcriptional activity (luciferase)” value is listed as “The transcriptional activity of PPARγ2 was inhibited”.
